Results published in patent US20030104423A1 (WISCONSIN ALUMNI RESEARCH FOUNDATION, published 2003).
Substitutions are numbered along the chain they refer to. Names and notes keep the numbering of the source.

B1: N-terminally His6-tagged β′ 1-309, hydroxylamine cleavage fragment (from pTA499) (enzyme)
chain: HHHHHHMKDLLKFLKAQTKTEEFDAIKIALASPDMIRSWSFGEVKKPETINYRTFKPERDGLFCARIFGPVKDYECLCGKYKRLKHRGVICEKCGVEVTQTKVRRERMGHIELASPTAHIWFLKSLPSRIGLLLDMPLRDIERVLYFESYVVIEGGMTNLERQQILTEEQYLDALEEFGDEFDAKMGAEAIQALLKSMDLEQECEQLREELNETNSETKRKKLTKRIKLLEAFVQSGNKPEWMILTVLPVLPPDLRPLVPLDGGRFATSDLNDLYRRVINRNNRLKRLLDLAAPDIIVRNEKRMLQEAVDALLDN
B2: β′1-309, untagged (pTA518) (enzyme)
chain: MKDLLKFLKAQTKTEEFDAIKIALASPDMIRSWSFGEVKKPETINYRTFKPERDGLFCARIFGPVKDYECLCGKYKRLKHRGVICEKCGVEVTQTKVRRERMGHIELASPTAHIWFLKSLPSRIGLLLDMPLRDIERVLYFESYVVIEGGMTNLERQQILTEEQYLDALEEFGDEFDAKMGAEAIQALLKSMDLEQECEQLREELNETNSETKRKKLTKRIKLLEAFVQSGNKPEWMILTVLPVLPPDLRPLVPLDGGRFATSDLNDLYRRVINRNNRLKRLLDLAAPDIIVRNEKRMLQEAVDALLDN
B3: β′100-309, untagged (pTA530) (enzyme)
chain: ERMGHIELASPTAHIWFLKSLPSRIGLLLDMPLRDIERVLYFESYVVIEGGMTNLERQQILTEEQYLDALEEFGDEFDAKMGAEAIQALLKSMDLEQECEQLREELNETNSETKRKKLTKRIKLLEAFVQSGNKPEWMILTVLPVLPPDLRPLVPLDGGRFATSDLNDLYRRVINRNNRLKRLLDLAAPDIIVRNEKRMLQEAVDALLDN
B4: β′60-309, untagged (pTA528) (enzyme)
chain: RIFGPVKDYECLCGKYKRLKHRGVICEKCGVEVTQTKVRRERMGHIELASPTAHIWFLKSLPSRIGLLLDMPLRDIERVLYFESYVVIEGGMTNLERQQILTEEQYLDALEEFGDEFDAKMGAEAIQALLKSMDLEQECEQLREELNETNSETKRKKLTKRIKLLEAFVQSGNKPEWMILTVLPVLPPDLRPLVPLDGGRFATSDLNDLYRRVINRNNRLKRLLDLAAPDIIVRNEKRMLQEAVDALLDN
B5: β′1-319 wild type, untagged (pTA620) (enzyme)
chain: MKDLLKFLKAQTKTEEFDAIKIALASPDMIRSWSFGEVKKPETINYRTFKPERDGLFCARIFGPVKDYECLCGKYKRLKHRGVICEKCGVEVTQTKVRRERMGHIELASPTAHIWFLKSLPSRIGLLLDMPLRDIERVLYFESYVVIEGGMTNLERQQILTEEQYLDALEEFGDEFDAKMGAEAIQALLKSMDLEQECEQLREELNETNSETKRKKLTKRIKLLEAFVQSGNKPEWMILTVLPVLPPDLRPLVPLDGGRFATSDLNDLYRRVINRNNRLKRLLDLAAPDIIVRNEKRMLQEAVDALLDNGRRGRAITGS
B6: β′1-319 N266D (pTA610) (enzyme)
chain: B5 chain with N266D
B7: β′1-319 Y269A (pTA611) (enzyme)
chain: B5 chain with Y269A
B8: β′ mutant L299D (enzyme)
chain: B5 chain with L299D
B9: β′ mutant N274P (enzyme)
chain: B5 chain with N274P
B10: β′1-319 K280E (pTA613) (enzyme)
chain: B5 chain with K280E
B11: β′ mutant V272D (enzyme)
chain: B5 chain with V272D
B12: β′ mutant E301P (enzyme)
chain: B5 chain with E301P
B13: β′1-319 N309D (pTA619) (enzyme)
chain: B5 chain with N309D
B14: HMK-His6-β′(100-309), unlabeled (pTA133) (enzyme)
chain: MARRASVHHHHHHMERMGHIELASPTAHIWFLKSLPSRIGLLLDMPLRDIERVLYFESYVVIEGGMTNLERQQILTEEQYLDALEEFGDEFDAKMGAEAIQALLKSMDLEQECEQLREELNETNSETKRKKLTKRIKLLEAFVQSGNKPEWMILTVLPVLPPDLRPLVPLDGGRFATSDLNDLYRRVINRNNRLKRLLDLAAPDIIVRNEKRMLQEAVDALLDN
notes: also called unlabeled β′-fragment
B15: His6-HMK-β′1-280 (pTA523) (enzyme)
chain: MKDLLKFLKAQTKTEEFDAIKIALASPDMIRSWSFGEVKKPETINYRTFKPERDGLFCARIFGPVKDYECLCGKYKRLKHRGVICEKCGVEVTQTKVRRERMGHIELASPTAHIWFLKSLPSRIGLLLDMPLRDIERVLYFESYVVIEGGMTNLERQQILTEEQYLDALEEFGDEFDAKMGAEAIQALLKSMDLEQECEQLREELNETNSETKRKKLTKRIKLLEAFVQSGNKPEWMILTVLPVLPPDLRPLVPLDGGRFATSDLNDLYRRVINRNNRLK
notes: range 1-280
B16: His6-tagged β′178-309 (pTA537) (enzyme)
chain: AKMGAEAIQALLKSMDLEQECEQLREELNETNSETKRKKLTKRIKLLEAFVQSGNKPEWMILTVLPVLPPDLRPLVPLDGGRFATSDLNDLYRRVINRNNRLKRLLDLAAPDIIVRNEKRMLQEAVDALLDN
B17: β′260-309 with C-terminal His6 (pTA546) (enzyme)
chain: FATSDLNDLYRRVINRNNRLKRLLDLAAPDIIVRNEKRMLQEAVDALLDNHHHHHH
B18: His6-tagged β′100-309 (pTA533) (enzyme)
chain: B3 chain
B19: His6-tagged β′200-309 (pTA538) (enzyme)
chain: QLREELNETNSETKRKKLTKRIKLLEAFVQSGNKPEWMILTVLPVLPPDLRPLVPLDGGRFATSDLNDLYRRVINRNNRLKRLLDLAAPDIIVRNEKRMLQEAVDALLDN
B20: His6-HMK-β′1-300 (pTA524) (enzyme)
chain: MKDLLKFLKAQTKTEEFDAIKIALASPDMIRSWSFGEVKKPETINYRTFKPERDGLFCARIFGPVKDYECLCGKYKRLKHRGVICEKCGVEVTQTKVRRERMGHIELASPTAHIWFLKSLPSRIGLLLDMPLRDIERVLYFESYVVIEGGMTNLERQQILTEEQYLDALEEFGDEFDAKMGAEAIQALLKSMDLEQECEQLREELNETNSETKRKKLTKRIKLLEAFVQSGNKPEWMILTVLPVLPPDLRPLVPLDGGRFATSDLNDLYRRVINRNNRLKRLLDLAAPDIIVRNEKRMLQ
notes: range 1-300
B21: His6-tagged β′60-309 (pTA532) (enzyme)
chain: B4 chain
B22: His6-tagged β′33-309 (pTA531) (enzyme)
chain: WSFGEVKKPETINYRTFKPERDGLFCARIFGPVKDYECLCGKYKRLKHRGVICEKCGVEVTQTKVRRERMGHIELASPTAHIWFLKSLPSRIGLLLDMPLRDIERVLYFESYVVIEGGMTNLERQQILTEEQYLDALEEFGDEFDAKMGAEAIQALLKSMDLEQECEQLREELNETNSETKRKKLTKRIKLLEAFVQSGNKPEWMILTVLPVLPPDLRPLVPLDGGRFATSDLNDLYRRVINRNNRLKRLLDLAAPDIIVRNEKRMLQEAVDALLDN
B23: HMK-His6-β′(100-309), IC5-labeled (pTA133) (enzyme)
chain: B14 chain
notes: also called labeled β′-fragment; IC5-labeled β′-fragment
B24: β′1-319 Q300E (pTA617) (enzyme)
chain: B5 chain with Q300E

The binders below were run against T1, HMK-His6-σ70, 32P-labeled (pHMK-His6-σ70) (Escherichia coli, UniProt P00579 1-613) (assay: ordered fragment ladder far-Western, 32P-σ70 probe).
T1 construct: range 1-613; also called ^32P-labeled ?^70; HMK-?^70

| Binder | binding result |
| --- | --- |
| B1 | binds |

What follows are binders tested against T1, HMK-His6-σ70, 32P-labeled … (assay: far-Western of whole cell lysate, 32P-σ70 probe).

| Binder | binding result |
| --- | --- |
| B2 | binds |
| B3 | binds |
| B4 | binds |

What follows are binders tested against T1, HMK-His6-σ70, 32P-labeled … (assay: far-Western binding, 32P-σ70 probe; grade).

| Binder | binding result |
| --- | --- |
| B5 | binds |
| B6 | binds |
| B7 | binds |
| B8 | no binding |
| B9 | no binding |
| B10 | binds |
| B11 | no binding |
| B12 | no binding |
| B13 | binds |

These binders were tested against T2, σ70, native, untagged (pLN12) (Escherichia coli, UniProt P00579 1-613) (assay: mixed with σ70 and passed over Ni-NTA (control)).
T2 construct: range 1-613; also called native ?^70

| Binder | binding result |
| --- | --- |
| B2 | binds |

Each binder was assayed against T3, σ70 (C132S, C291S, C295S, S442C), labeled with Eu-DTPA-AMCA (pSigma70(442C)) (Escherichia coli, UniProt P00579 1-613) (assay: EMS assay, competition with labeled β′-fragment).
T3 construct: also called labeled ?^70

| Binder | binding result |
| --- | --- |
| B14 | binds |

These binders were tested against T2, σ70, native, untagged (pLN12) (assay: Ni-NTA co-immobilization, SDS-PAGE).

| Binder | binding result |
| --- | --- |
| B15 | no binding |
| B16 | binds |
| B17 | binds |
| B18 | binds |
| B19 | binds |
| B20 | no binding |
| B21 | binds |
| B22 | binds |

The binders below were run against T3, σ70 (C132S, C291S, C295S, S442C), … (assay: electrophoretic mobility shift (EMS) assay, native gel).

| Binder | binding result |
| --- | --- |
| B23 | binds |

What follows are binders tested against T1, HMK-His6-σ70, 32P-labeled … (assay: far-Western of β′1-319 in cell extract, normalized to Western).

| Binder | relative binding against wild type β′1-319 [fold] |
| --- | --- |
| B24 | > 7 |
